B1: Tudor domain-containing protein 3, residues 554 to 611; numbered along this chain, Q9H7E2 (parent)
chain: KMWKPGDECFALYWEDNKFYRAEVEALHSSGMTAVVKFIDYGNYEEVLLSNIKPIQTE

± gives the uncertainty stated by the source.

The variants in this series derive from B1. Briefly: abundance fitness (aPCA) (normalised: wild type 0, dead -1); higher = more abundant; growth selection in yeast, the domain comes from the species named. Conditions: Homo sapiens.
For the variant A22R, the abundance fitness is -0.756 ± 0.076.
On to A22Y, for which the abundance fitness is -0.844 ± 0.27.
In the case of A22C it was -0.488 ± 0.12; in that of A22E, -1.04 ± 0.13.
For the variant A22W, the abundance fitness was -0.95 ± 0.12.
Consider A22G, for which the abundance fitness is -0.351 ± 0.06.
Take A22S: the abundance fitness is -0.637 ± 0.087.
For the variant E15S, the abundance fitness is -0.114 ± 0.06.
Turning to E15T, the abundance fitness is -0.139 ± 0.073.
With E15D, the abundance fitness is -0.336 ± 0.12.
Consider E15N, for which the abundance fitness was -0.105 ± 0.1.
Regarding E15R, the abundance fitness came to 0.022 ± 0.056.
As for S30Y, the abundance fitness is -0.463 ± 0.1.
S30V: the abundance fitness was -0.501 ± 0.063.
In the case of S30K, the abundance fitness is -0.172 ± 0.094.
Take S30I: the abundance fitness is -0.322 ± 0.12.
In the case of K1D it was -0.182 ± 0.21.
For the variant K1G, the abundance fitness was -0.138 ± 0.14.
Turning to K1T, the abundance fitness was -0.278 ± 0.17.
F10L: the abundance fitness is 0.084 ± 0.064.
In the case of F10W it was -0.051 ± 0.079; in that of F10Y, 0.026 ± 0.088.
On to F10Q, for which the abundance fitness was -0.006 ± 0.099.
As to F10K, the abundance fitness is -0.32 ± 0.11.
Consider F10D, for which the abundance fitness is -0.267 ± 0.1.
With F10E, the abundance fitness was 0.023 ± 0.081.
Consider F10S, for which the abundance fitness is -0.234 ± 0.064.
On to F10G, for which the abundance fitness was -0.84 ± 0.077.
On to L48V, for which the abundance fitness is -0.354 ± 0.062.
In the case of L48P it was -0.077 ± 0.08; in that of L48G, -0.479 ± 0.069.
Consider L48H, for which the abundance fitness was -0.152 ± 0.1.
For L48Q, the abundance fitness was -0.008 ± 0.09.
As to L48R, the abundance fitness was -0.197 ± 0.053.
L48I: the abundance fitness is -0.408 ± 0.13.
Regarding I39T, the abundance fitness is -0.034 ± 0.083.
Consider I39C, for which the abundance fitness was -0.081 ± 0.082.
As to I39N, the abundance fitness was -0.255 ± 0.12.
In the case of I39D, the abundance fitness was -0.469 ± 0.11.
For the variant I39F, the abundance fitness is -0.083 ± 0.1.
In the case of I39R it was -0.097 ± 0.056; in that of G31T, 0.02 ± 0.09; in that of G31L, -0.267 ± 0.075.
Turning to G31Q, the abundance fitness was -0.043 ± 0.17.
For G31Y, the abundance fitness is -0.269 ± 0.13.
In the case of G31M it was -0.043 ± 0.11.
For G31S, the abundance fitness was -0.082 ± 0.062.
Consider Y44E, for which the abundance fitness came out at 0.012 ± 0.092.
Take Y44H: the abundance fitness is -0.13 ± 0.1.
Y44A: the abundance fitness is -0.065 ± 0.068.
As to Y44M, the abundance fitness was determined as 0.09 ± 0.12.
Turning to Y44K, the abundance fitness turned out to be 0.157 ± 0.088.
In the case of Y44F it was 0.006 ± 0.13.
In the case of Y44R it was 0.171 ± 0.056.
In the case of E45M it was -0.586 ± 0.15; in that of E45N, -0.368 ± 0.17; in that of E45Y, -0.38 ± 0.15.
In the case of E45P, the abundance fitness was -1.02 ± 0.19.
As to E45R, the abundance fitness was -0.107 ± 0.053.
As to L27H, the abundance fitness was -0.675 ± 0.18.
Next, L27A: -0.651 ± 0.1; L27C: -0.183 ± 0.087; L27D: -0.871 ± 0.14.
Consider L27S, for which the abundance fitness was -0.749 ± 0.1.
In the case of L27R it was -0.872 ± 0.078.
Turning to L27V, the abundance fitness is -0.064 ± 0.067.
On to S50G, for which the abundance fitness was -0.155 ± 0.054.
With S50L, the abundance fitness is -0.523 ± 0.074.
Turning to S50N, the abundance fitness is -0.217 ± 0.086.
Next, S50V: -0.082 ± 0.063.
With S50D, the abundance fitness came out at 0.026 ± 0.084.
As for S50P, the abundance fitness is -0.548 ± 0.082.
Next, S50A: 0.019 ± 0.077; S50E: -0.118 ± 0.083.
In the case of S50I, the abundance fitness was -0.192 ± 0.094.
For the variant S50R, the abundance fitness is -0.155 ± 0.056.
As to Y20W, the abundance fitness is -0.305 ± 0.073.
In the case of Y20C, the abundance fitness was -0.321 ± 0.12.
As to Y20E, the abundance fitness is -0.516 ± 0.09.
Y20I: the abundance fitness was -0.347 ± 0.098.
As to Y20H, the abundance fitness was 0.081 ± 0.12.
As for Y20F, the abundance fitness was -0.807 ± 0.17.
Regarding G6D, the abundance fitness is -0.874 ± 0.089.
With G6M, the abundance fitness was -0.922 ± 0.13.
For the variant G6S, the abundance fitness is -0.776 ± 0.08.
With G6P, the abundance fitness was -0.985 ± 0.13.
As to G6F, the abundance fitness is -0.828 ± 0.12.
In the case of G6V it was -0.928 ± 0.094; in that of G6E, -0.845 ± 0.12; in that of I55C, -0.041 ± 0.074.
Turning to I55S, the abundance fitness was -0.192 ± 0.067.
As to I55V, the abundance fitness is -0.039 ± 0.063.
For the variant I55D, the abundance fitness is -0.415 ± 0.1.
With G42R, the abundance fitness was -0.607 ± 0.069.
As for G42W, the abundance fitness is -0.695 ± 0.089.
As to G42E, the abundance fitness was found to be 0.005 ± 0.097.
In the case of G42M, the abundance fitness was -0.319 ± 0.18.
Regarding G42S, the abundance fitness was -0.378 ± 0.13.
In the case of P54I, the abundance fitness is -0.5 ± 0.12.
Take P54H: the abundance fitness is -0.181 ± 0.12.
Take P54D: the abundance fitness was -0.229 ± 0.1.
Turning to P54G, the abundance fitness was -0.332 ± 0.057.
Consider P54W, for which the abundance fitness was -0.767 ± 0.085.
As for P54T, the abundance fitness was -0.125 ± 0.093.
With D40N, the abundance fitness was -0.187 ± 0.12.
Regarding W14I, the abundance fitness was -0.131 ± 0.11.
Next, W14R: 0.071 ± 0.056; W14C: 0.046 ± 0.078; W14V: -0.012 ± 0.057.
In the case of V35G, the abundance fitness was -0.384 ± 0.057.
Next, V35W: -0.087 ± 0.069.
For the variant V35K, the abundance fitness worked out at 0.104 ± 0.082.
As to V35I, the abundance fitness was -0.16 ± 0.13.
In the case of V35S it was -0.032 ± 0.071; in that of V35N, -0.211 ± 0.12.
Next, V35C: -0.162 ± 0.088; E46F: -0.697 ± 0.19; E46P: -0.465 ± 0.11.
As to E46Q, the abundance fitness is -0.055 ± 0.11.
With E46W, the abundance fitness is -0.259 ± 0.095.
With E46I, the abundance fitness was -0.488 ± 0.12.
E46L: the abundance fitness is -0.327 ± 0.076.
Consider E46H, for which the abundance fitness is -0.308 ± 0.12.
Next, E25Y: 0.046 ± 0.12.
Take E25H: the abundance fitness is -0.039 ± 0.1.
Regarding E25Q, the abundance fitness worked out at 0.077 ± 0.075.
In the case of E25V, the abundance fitness was 0.013 ± 0.063.
Next, D16Q: -0.498 ± 0.12.
Regarding D16K, the abundance fitness is -0.366 ± 0.11.
Consider D16G, for which the abundance fitness is -0.89 ± 0.077.
On to D16T, for which the abundance fitness was -0.377 ± 0.1.
As to D16H, the abundance fitness is -0.116 ± 0.14.
P5I: the abundance fitness was -0.141 ± 0.16.
In the case of P5S, the abundance fitness was -0.113 ± 0.065.
For the variant P5T, the abundance fitness is -0.024 ± 0.079.
With P5H, the abundance fitness is -0.133 ± 0.097.
Next, P5A: -0.017 ± 0.077.
For P5N, the abundance fitness worked out at 0.03 ± 0.15.
For P5M, the abundance fitness was -0.401 ± 0.1.
Next, P5R: -0.123 ± 0.052; L49Q: -0.583 ± 0.11; L49I: -0.026 ± 0.085.
Turning to L49V, the abundance fitness was -0.046 ± 0.058.
As for L49G, the abundance fitness is -0.954 ± 0.079.
On to L49N, for which the abundance fitness was -1.05 ± 0.19.
As to L49K, the abundance fitness was -0.774 ± 0.13.
Regarding R21T, the abundance fitness was -0.542 ± 0.094.
As for R21E, the abundance fitness was -0.301 ± 0.099.
Turning to R21G, the abundance fitness is -0.978 ± 0.098.
R21D: the abundance fitness is -0.582 ± 0.14.
As for R21A, the abundance fitness was -0.289 ± 0.067.
In the case of R21L, the abundance fitness was -0.177 ± 0.058.
As for R21Q, the abundance fitness was -0.13 ± 0.1.
In the case of R21C it was -0.826 ± 0.11.
As to R21I, the abundance fitness is -0.434 ± 0.13.
For the variant V47P, the abundance fitness is -0.893 ± 0.11.
Turning to V47R, the abundance fitness is -0.937 ± 0.073.
In the case of V47I it was -0.134 ± 0.12.
Consider V47E, for which the abundance fitness was -0.925 ± 0.11.
As to V47Q, the abundance fitness is -0.714 ± 0.1.
Next, V47F: -0.636 ± 0.17; V47W: -0.846 ± 0.071.
Consider V47C, for which the abundance fitness was -0.296 ± 0.11.
V47Y: the abundance fitness was -0.886 ± 0.23.
Turning to I52K, the abundance fitness was -0.974 ± 0.43.
With I52S, the abundance fitness is -0.853 ± 0.089.
In the case of I52V it was -0.184 ± 0.063.

Values taken from the Human Domainome abundance scans (Beltran et al. 2025).
